Test results as given in patent EP1137792B9.

Experiments:
Assay in all cases: cell-based or functional assay
[1] = target: murine LFA-3 (murine CD48) (murine) (UniProt P18181)
[2] = target: murine B7-1 (CD80) (murine) (UniProt Q00609)
[3] = target: murine Intercellular adhesion molecule-1 (ICAM-1; CD54) (murine) (UniProt P13597)
Sequence of UniProt P13597 (P13597 28-537): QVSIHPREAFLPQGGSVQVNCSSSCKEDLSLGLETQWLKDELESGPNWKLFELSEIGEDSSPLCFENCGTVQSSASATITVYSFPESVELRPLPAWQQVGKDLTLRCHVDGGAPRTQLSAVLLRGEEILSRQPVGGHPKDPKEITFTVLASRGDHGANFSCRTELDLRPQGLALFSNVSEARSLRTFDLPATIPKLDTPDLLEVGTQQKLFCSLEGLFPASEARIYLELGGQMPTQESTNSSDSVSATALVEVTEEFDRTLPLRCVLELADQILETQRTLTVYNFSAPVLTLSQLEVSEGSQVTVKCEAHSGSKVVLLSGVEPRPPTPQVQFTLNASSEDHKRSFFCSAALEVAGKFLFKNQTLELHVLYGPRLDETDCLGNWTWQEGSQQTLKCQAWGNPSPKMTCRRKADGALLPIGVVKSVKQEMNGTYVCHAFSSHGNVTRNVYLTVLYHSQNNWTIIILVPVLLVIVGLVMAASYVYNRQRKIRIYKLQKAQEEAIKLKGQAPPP

Sequence of UniProt P18181 (P18181 23-217): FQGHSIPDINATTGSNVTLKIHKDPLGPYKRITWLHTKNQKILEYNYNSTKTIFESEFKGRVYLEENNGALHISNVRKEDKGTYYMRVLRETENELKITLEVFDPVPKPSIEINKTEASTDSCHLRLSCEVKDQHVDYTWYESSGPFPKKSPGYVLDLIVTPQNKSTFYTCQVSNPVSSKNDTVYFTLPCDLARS
Sequence of UniProt Q00609 (Q00609 38-306): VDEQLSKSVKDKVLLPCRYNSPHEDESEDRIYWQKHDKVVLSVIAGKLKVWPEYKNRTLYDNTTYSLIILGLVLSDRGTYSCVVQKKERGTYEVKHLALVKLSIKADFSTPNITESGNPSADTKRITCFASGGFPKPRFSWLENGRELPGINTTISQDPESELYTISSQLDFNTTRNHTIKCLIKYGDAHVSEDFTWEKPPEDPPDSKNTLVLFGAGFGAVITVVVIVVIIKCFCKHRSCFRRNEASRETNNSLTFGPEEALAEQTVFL

“Hamster anti-murine CD48 (BCM-1; clone HM48-1) (antibody)” was tested, and the reduction of the increased T-cell proliferation supported by MC38/LFA-3 stimulator cells with Con A [1] was 98%.
Substance “Hamster anti-murine CD80 (B7-1; clone 16-10A1) (antibody)” has an inhibition of the increased T-cell proliferation supported by MC38/B7-1 stimulator cells with Con A [2] of 83%.
With “Hamster anti-murine CD54 (ICAM-1; clone 3E2) (antibody)” the reduction of the increased T-cell proliferation supported by MC38/ICAM-1 stimulator cells with Con A [3] was 88%.
